These are literature values, as cited in paper PMC3101942.

What is called Kd is the constant that tells how readily two partners part at equilibrium.

This series deals with tissue factor (Homo sapiens) (UniProt P13726).
Sequence of UniProt P13726 (P13726 33-251): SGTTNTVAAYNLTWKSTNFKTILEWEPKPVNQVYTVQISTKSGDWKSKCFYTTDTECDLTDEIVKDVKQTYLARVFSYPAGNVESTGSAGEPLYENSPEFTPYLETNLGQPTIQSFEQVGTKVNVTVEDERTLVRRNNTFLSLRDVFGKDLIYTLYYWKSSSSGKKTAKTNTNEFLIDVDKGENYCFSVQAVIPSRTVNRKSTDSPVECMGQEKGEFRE

With factor VII (from UniProt P08709), the Kd was 1 pM.
